This assay has as its target T1, GLD-3L with C-terminal His tag, MBP cleaved off (C. elegans, UniProt Q95ZK7-1 1-969).
T1 construct: GLD-3, C. elegans, isoform GLD-3L; also called GLD-3L^6His; source: insect cells, purified on amylose beads, MBP cleaved off by PreScission protease; not shown: MBP, N-terminal, cleaved; His6, C-terminal, kept
T1 sequence (looked up): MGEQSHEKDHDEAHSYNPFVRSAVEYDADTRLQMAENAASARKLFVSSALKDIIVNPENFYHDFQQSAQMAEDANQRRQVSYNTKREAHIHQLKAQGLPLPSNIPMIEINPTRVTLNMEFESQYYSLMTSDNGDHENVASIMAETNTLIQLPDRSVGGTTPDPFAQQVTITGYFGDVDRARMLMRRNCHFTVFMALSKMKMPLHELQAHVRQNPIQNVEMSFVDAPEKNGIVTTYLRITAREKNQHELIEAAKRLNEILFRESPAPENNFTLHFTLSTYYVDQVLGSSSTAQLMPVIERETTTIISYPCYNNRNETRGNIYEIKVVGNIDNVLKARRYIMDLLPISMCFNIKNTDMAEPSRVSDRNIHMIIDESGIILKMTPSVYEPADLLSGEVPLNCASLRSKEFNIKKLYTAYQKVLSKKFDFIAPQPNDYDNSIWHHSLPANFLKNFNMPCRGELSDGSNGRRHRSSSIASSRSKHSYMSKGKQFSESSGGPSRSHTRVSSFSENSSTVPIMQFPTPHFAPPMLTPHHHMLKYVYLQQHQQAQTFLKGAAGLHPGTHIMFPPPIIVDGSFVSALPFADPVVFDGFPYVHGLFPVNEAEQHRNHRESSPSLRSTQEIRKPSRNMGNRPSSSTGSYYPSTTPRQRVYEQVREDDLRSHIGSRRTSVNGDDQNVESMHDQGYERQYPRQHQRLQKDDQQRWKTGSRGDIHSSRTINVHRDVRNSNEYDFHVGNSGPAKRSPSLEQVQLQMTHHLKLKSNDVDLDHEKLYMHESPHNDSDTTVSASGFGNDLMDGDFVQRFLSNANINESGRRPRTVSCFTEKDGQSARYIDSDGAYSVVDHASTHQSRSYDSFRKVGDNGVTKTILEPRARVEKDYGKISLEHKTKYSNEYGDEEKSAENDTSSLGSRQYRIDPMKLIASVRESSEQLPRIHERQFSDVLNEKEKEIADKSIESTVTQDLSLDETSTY
The experiment in a line: pull-down; competition assay; MBP-FBF-1 immobilized on amylose beads, loaded with GLD-3L, then challenged with increasing amounts of free GLS-1; washed; GLD-3L on beads quantified from Western blot bands. The conditions noted are these: both partners purified. (Immunoblotting shows a protein as a band on a membrane.)

B1: MBP-FBF-1 with C-terminal His tag, from insect cells (natural protein, C. elegans, UniProt Q9N5M6 1-614, looked up)
chain: MDQSKMRYTNQFRKTPQKPTSTEVGNHHTPAHSPMAQHETSMWNFNSLNPYFSMLNMNDGMNYARHQQNHIVTSRPPTPLTDLMSLRSFQSFPNVFMPVSRSRTSSFIQSDTDSSRLEPDDFSQNVRYCSTEIDRNNSSSKNDHLKYSRPALSRNSRSFTRSNNVLPTWSLDSNGEMRSRLSLSEVLDSGDLMKFAVDKTGCQFLEKAVKGSLTSYQKFQLFEQVIGRKDDFLKLSTNIFGNYFVQEIIGMSLTTYDDDNIKRQEKLKNFISSQMTDMCLDKFACRVIQSSLQNMDLSLACKLVQALPRDARLIAICVDQNANHVIQKVVAVIPLKNWEFIVDFVATPEHLRQICFDKYGCRVVQTIIEKLTADSINVDLTSAAQHLRERALQRLMTSVTNRCQELATNEYANYIIQHIVSNDDLAVYRECIIEKCLMRNLLSLSQEKFASHVVEKAFLHAPMELLAEMMDEIFDGYMPHPGTGKDALDIMMFHQFGNYVVQCMLTICCDAVSGRRQTKEGSYDHANSFQVWLKKLHSRVTKERHRLSRFSSGKKMIETLAHLRSTHPIYGLQSSGHESFKTDCFSTASEHDGLELEKNGIEEGNLRLMRTFSP
notes: FBF-1, PUF protein, C. elegans; also called MBP-FBF-1^6His; source: insect cells, purified on amylose beads; not shown: His6, C-terminal, kept
Consider B1, for which the binding result is recorded as “binds”.

Values taken from article PMC2679207, “GLS-1, a Novel P Granule Component, Modulates a Network of Conserved RNA Regulators to Influence Germ Cell Fate Decisions” (PLoS Genetics, 2009).
